B1: M14-C03 antibody (antibody, V domains shown)
VH: EVQLLESGGGLVQPGGSLRLSCAASGFTFSKYMMSWVRQAPGKGLEWVSYISPSGGLTWYADSVKGRFTISRDNSKNTLYLQMNSLRAEDTAVYYCARDGARGYGMDVWGQGTTVTVSS
VL: DIQMTQSPATLSLSPGERATLSCRASQSVSSYLAWYQQKPGQAPRLLIYDASNRATGIPARFSGSGSGTDFTLTISSLEPEDFAVYYCQQRSNWPPEVTFGPGTKVDIK
notes: Fully human full-length antibody (ATCC PTA-7445); also called M14.C03.G4.P.agly
B2: MJF034, C06 (VL/GS3/VH) scFv with VL A51G (scFv)
scFv: DIQMTQSPLSLSASVGDRVTITCQASRDIRNYLNWYQQKPGKAPKLLIYDGSSLQTGVPSRFGGSGSGTDFSFTIGSLQPEDIATYYCQQFDSLPHTFGQGTKLEIKGGGGSGGGGSGGGGSEVQLLESGGGLVQPGGSLRLSCAASGFTFSIYRMQWVRQAPGKGLEWVSGISPSGGTTWYADSVKGRFTISRDNSKNTLYLQMNSLRAEDTAVYYCARWSGGSGYAFDIWGQGTMVTVSSDDDKSFLEQKLISEEDLNSAVDHHHHHH
notes: Kabat positions
B3: MJF039, C06 (VL/GS3/VH) scFv with VL T20R, R30N, G63S, S72N (scFv)
scFv: B2 scFv with T20R, R30N, G51A, G63S, S72N
notes: Kabat positions
B4: MJF050, C06 (VL/GS3/VH) scFv with VH T110V (scFv, name in Kabat numbering)
scFv: B2 scFv with G51A, T239V
notes: Kabat positions
B5: MJF035, C06 (VL/GS3/VH) scFv with VL S72N (scFv)
scFv: B2 scFv with G51A, S72N
notes: Kabat positions
B6: MJF042, C06 (VL/GS3/VH) scFv with VL S77G, I83G (scFv)
scFv: B2 scFv with G51A, S77G, I83G
notes: Kabat positions
B7: MJF037, C06 (VL/GS3/VH) scFv with VL S72Y (scFv)
scFv: B2 scFv with G51A, S72Y
notes: Kabat positions
B8: MJF040, C06 (VL/GS3/VH) scFv with VL I83M (scFv)
scFv: B2 scFv with G51A, I83M
notes: Kabat positions
B9: MJF043, C06 (VL/GS3/VH) scFv with VL I83D (scFv)
scFv: B2 scFv with G51A, I83D
notes: Kabat positions
B10: MJF038, C06 (VL/GS3/VH) scFv with VL G63S, S72N (scFv)
scFv: B2 scFv with G51A, G63S, S72N
notes: Kabat positions
B11: MJF051, C06 (VL/GS3/VH) scFv with VL S77G, I83Q (scFv)
scFv: B2 scFv with G51A, S77G, I83Q
notes: Kabat positions
B12: MJF049, C06 (VL/GS3/VH) scFv with VH R83T (scFv, name in Kabat numbering)
scFv: B2 scFv with G51A, R209T
notes: Kabat positions
B13: MJF048, C06 (VL/GS3/VH) scFv with VH R83K (scFv, name in Kabat numbering)
scFv: B2 scFv with G51A, R209K
notes: Kabat positions
B14: MJF047, C06 (VL/GS3/VH) scFv with VL I83G (scFv)
scFv: B2 scFv with G51A, I83G
notes: Kabat positions

Positions count from the first letter of the chain named. Names may count otherwise.

The target of the first assay is T1, hIGF-1R-Fc mutant SD103 (D461A, V462T) (human, UniProt P08069 31-933).
T1 construct: not shown: human IgG1 Fc, C-terminal tag
T1 sequence (P08069 31-933 D491A/V492T): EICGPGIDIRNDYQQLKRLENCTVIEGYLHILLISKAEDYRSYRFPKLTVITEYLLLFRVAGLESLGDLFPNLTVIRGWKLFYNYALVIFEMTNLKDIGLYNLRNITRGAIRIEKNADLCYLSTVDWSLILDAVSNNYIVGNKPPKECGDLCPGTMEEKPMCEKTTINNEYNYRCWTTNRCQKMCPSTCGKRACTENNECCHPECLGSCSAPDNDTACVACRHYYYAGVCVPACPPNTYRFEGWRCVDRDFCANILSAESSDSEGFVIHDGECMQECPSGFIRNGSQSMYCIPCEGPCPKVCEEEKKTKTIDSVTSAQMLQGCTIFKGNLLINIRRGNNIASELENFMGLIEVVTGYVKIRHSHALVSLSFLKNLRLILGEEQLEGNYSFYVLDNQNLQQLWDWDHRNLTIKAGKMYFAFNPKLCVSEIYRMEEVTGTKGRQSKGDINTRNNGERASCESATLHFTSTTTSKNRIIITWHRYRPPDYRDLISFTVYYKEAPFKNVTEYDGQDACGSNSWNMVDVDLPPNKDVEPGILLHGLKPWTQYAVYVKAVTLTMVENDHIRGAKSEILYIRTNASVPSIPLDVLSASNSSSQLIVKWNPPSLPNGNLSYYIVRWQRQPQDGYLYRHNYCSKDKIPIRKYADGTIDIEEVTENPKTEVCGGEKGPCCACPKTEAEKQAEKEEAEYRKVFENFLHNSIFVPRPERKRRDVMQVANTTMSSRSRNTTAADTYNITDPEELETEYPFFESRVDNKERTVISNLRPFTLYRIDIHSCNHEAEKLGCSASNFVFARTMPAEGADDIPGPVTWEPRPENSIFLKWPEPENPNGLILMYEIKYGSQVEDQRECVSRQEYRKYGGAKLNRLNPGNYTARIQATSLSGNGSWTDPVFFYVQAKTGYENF
In words: SPR, immobilized antibody. On the procedure: Surface plasmon resonance (SPR) experiments were performed on a Biacore 3000 instrument set to 25° C. […] The antibody sensorchip surfaces were prepared by injecting each antibody (diluted 100 μg/mL in 10 mM Acetate, pH 4.0) over EDC/NHS-activated sensorchip surfaces according to the standard protocol of the manufacturer. […] Both hIGF-1R-Fc and mIGF-1R-Fc proteins oligomerize due to the incorporation of two separate homodimeric regions (IGF-1R and IgG1-Fc). […] After, completion of the receptor-Fc loading step, flow rates were elevated to 5 μl/min. […] Dissociation was measured for 7 minutes after the antibody injections were complete. Finally, the flow rate was elevated to 30 μL/min and the chip surfaces were regenerated by 2×10 μL injections of 0.1 M glycine, pH 2.
In general terms: SPR reads the build-up and loss of mass on a sensor chip optically.
As to B1, the binding result is listed as “no binding”.

In the next assay the target is T2, human IGF-1R(1-903)-Fc (human, UniProt P08069 31-933).
T2 construct: also called hIGF-1R-Fc; SDWT; not shown: human IgG1 Fc, C-terminal tag
T2 sequence (P08069 31-933): as the sequence (P08069 31-933 D491A/V492T) above, with A461D, T462V counted along it
Briefly: competition ELISA: antibody diluted in human IGF-2 His solution, added to biotinylated hIGF-1R-Fc on streptavidin plates, bound IGF-2 His detected with anti-His-HRP (blocked ligand: IGF-2 His). As for the experimental part: (§1) hIGF-1R-Fc was biotinylated using EZ-Link Sulfo-NHS-LC-Biotin according to the protocol provided by the manufacturer (Pierce Cat. No. 21335). Biotinylated human IGF-1R Fc (NB12453-9) at 5 μg/ml was added to the wells of SigmaScreen streptavidin-coated 96-well plates (Sigma, Cat. No. M5432-5EA) at 100 μL/well and incubated overnight at 2-8° C. The plates were then washed four times with 200 μL/well PBST. […] The dilutions were added to the plates in duplicate at 100 μL/well and the plates were incubated at RT for 1 hour. The plates were then washed four times with 200 μL/well PBST. An HRP-conjugated anti-Histag antibody (Penta-His HRP Conjugate, QIAGEN, Cat. No. 1014992) was diluted 1:1000 in PBST and added to plates at 100 μL/well, and the plates were incubated at RT for one hour. The plates were then washed four times with 200 μL/well PBST. SureBlue Reserve TMB Microwell Peroxidase Substrate (KPL, Cat. No. 53-00-01) was added to plates at 100 μL/well followed by 1% phosphoric acid at 100 μL/well once the desired reaction was observed. The absorbance of each well was determined at 450 nm, and the results were normalized and plotted against the log of antibody concentration.
A general note: In an ELISA, binding on a coated surface is turned into a signal by an enzyme label.
Take B1: the “IC50 (read off the curve)” value is roughly 1 nM.

A further assay concerns the target T2, human IGF-1R(1-903)-Fc. Briefly: biolayer interferometry (Octet), IGF-1R Fc on Protein A sensors, scFv culture supernatant. Further details: unit not given here. An excerpt:
Individual transformed colonies were picked into deep-well 96 well dishes and processed for screening as described above. […] For off-rate analyses IGF-1R Fc was immobilized onto the surface of Protein A biosensors. […] ScFvs were allowed to bind to immobilized IGF-1R Fc for 300-seconds. Off-rate was subsequently assayed for 600 seconds.
In general terms: BLI is a label-free optical method that tracks binding on a fibre tip over time.
For B2, the “Kd (1/sec), off-rate as tabulated (XWU092 = 1.00)” value (“Kd (1/sec), off-rate as tabulated” for short) amounted to 0.81.
With B3, the “Kd (1/sec), off-rate as tabulated” value was determined as 0.56.
Same read-out and setting: as for B4, the figure is 1.68; as for B5, 0.54.
As for B6, the “Kd (1/sec), off-rate as tabulated” value was determined as 0.55.
Still for that read-out and setting: as for B7, the figure is 0.76.
On to B8, for which the “Kd (1/sec), off-rate as tabulated” value was determined as 0.76.
Still for that read-out and setting: under B9 stands 1.12; under B10, 0.76.
Same read-out and setting: under B11 stands 1.1; under B12, 1.41.
The same measure, in the same setting: under B13 stands 1.37; under B14, 1.44.

Another assay concerns the target T2, human IGF-1R(1-903)-Fc. Briefly: competition ELISA: antibody diluted in 320 nM human IGF-1 His, added to biotinylated hIGF-1R-Fc on streptavidin plates, bound IGF-1 His detected with anti-His-HRP (blocked ligand: IGF-1 His). On the procedure:
as §1
For B1, the “IC50 (read off the curve)” value was roughly 5 nM.

These data come from US20090130105A1 (Biogen, published 2009).
